We go through two molecules from article PMC6365968 (Cell, 2018).

Series [1] deals with T1, human LAG3-Ig (immunoglobulin Fc-tagged LAG3 extracellular domain fusion protein) (human, UniProt P18627 23-450).
T1 sequence (looked up): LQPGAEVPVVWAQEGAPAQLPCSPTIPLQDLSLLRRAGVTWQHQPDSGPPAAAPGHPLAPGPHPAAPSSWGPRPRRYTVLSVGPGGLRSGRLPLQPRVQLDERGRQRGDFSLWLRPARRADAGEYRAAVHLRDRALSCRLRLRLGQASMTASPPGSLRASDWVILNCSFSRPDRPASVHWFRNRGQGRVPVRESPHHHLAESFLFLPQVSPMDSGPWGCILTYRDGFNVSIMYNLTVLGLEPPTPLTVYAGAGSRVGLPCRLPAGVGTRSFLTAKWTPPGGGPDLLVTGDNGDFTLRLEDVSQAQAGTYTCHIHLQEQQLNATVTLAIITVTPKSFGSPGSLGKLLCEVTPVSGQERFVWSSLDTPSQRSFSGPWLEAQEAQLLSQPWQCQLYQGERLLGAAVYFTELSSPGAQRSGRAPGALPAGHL
Briefly: BLI. On the technique in general: BLI is a label-free optical method that tracks binding on a fibre tip over time.

The series “SEC-MALS” concerns the molecule itself. Kind of series: SEC-MALS.
For series [2], the target named is T2, mouse LAG3-Ig (Fc-tagged mouse LAG3 extracellular domain fusion protein) (mouse, UniProt Q61790 24-442).
T2 sequence (looked up): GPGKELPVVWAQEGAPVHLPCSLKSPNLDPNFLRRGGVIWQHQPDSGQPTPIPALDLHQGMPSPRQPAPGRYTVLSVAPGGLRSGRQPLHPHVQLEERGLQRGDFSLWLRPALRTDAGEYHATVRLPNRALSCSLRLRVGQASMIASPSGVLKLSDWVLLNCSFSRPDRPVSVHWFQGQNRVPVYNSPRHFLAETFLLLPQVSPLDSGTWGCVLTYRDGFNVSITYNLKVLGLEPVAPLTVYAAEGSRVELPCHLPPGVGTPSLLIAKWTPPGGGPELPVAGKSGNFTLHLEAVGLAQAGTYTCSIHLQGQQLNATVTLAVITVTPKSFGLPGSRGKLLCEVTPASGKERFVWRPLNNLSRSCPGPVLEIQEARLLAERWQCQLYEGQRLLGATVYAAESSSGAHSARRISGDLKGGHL
Briefly: BLI.

B1: FLAG-tagged human FGL1 (ligand, UniProt Q08830 23-312, looked up)
chain: LEDCAQEQMRLRAQVRLLETRVKQQQVKIKQLLQENEVQFLDKGDENTVIDLGSKRQYADCSEIFNDGYKLSGFYKIKPLQSPAEFSVYCDMSDGGGWTVIQRRSDGSENFNRGWKDYENGFGNFVQKHGEYWLGNKNLHFLTTQEDYTLKIDLADFEKNSRYAQYKNFKVGDEKNFYELNIGEYSGTAGDSLAGNFHPEVQWWASHQRMKFSTWDRDHDNYEGNCAEEDQSGWWFNRCHSANLNGVYYSGPYTAKTDNGIVWYTWHGWWYSLKSVVMKIRPNDFIPNVI
Consider B1, for which, in series [1], the binding result was “binds”.

B2: FLAG-tagged mouse FGL1 (ligand, UniProt Q71KU9 23-314, looked up)
chain: LESESCLREQVRLRAQVHQLETRVKQQQTMIAQLLHEKEVQFLDKGSENSFIDLGGKRQYADCSEIYNDGFKQSGFYKIKPLQSLAEFSVYCDMSDGGGWTVIQRRSDGSENFNRGWNDYENGFGNFVQNNGEYWLGNKNINLLTIQGDYTLKIDLTDFEKNSSFAQYQSFKVGDKKSFYELNIGEYSGTAGDSLSGTFHPEVQWWASHQRMKFSTWDRDNDNYQGNCAEEEQSGWWFNRCHSANLNGVYYRGSYRAETDNGVVWYTWHGWWYSLKSVVMKIRPSDFIPNII
For B2, the stoichiometry N (as a rule, the number of molecules, sites or subunits per partner or assembly) in the series “SEC-MALS” worked out at 2. Further, the Kd – broadly, a measure of binding affinity in units of concentration – in series [2] is approximately 1.5 nM.
